# Data reported in patent publication US20160017055A1.
# B1: X115-F02 (antibody, human IgG1, kappa, V domains shown)
# VH: EVQLLESGGGLVQPGGSLRLSCAASGFTFSHYIMMWVRQAPGKGLEWVSGIYSSGGITVYADSVKGRFTISRDNSKNTLYLQMNSLRAEDTAVYYCAYRRIGVPRRDEFDIWGQGTMVTVSS
# VL: DIQMTQSPSTLSASVGDRVTITCRASQSISSWLAWYQQKPGKAPKLLIYKASTLESGVPSRFSGSGSGTEFTLTISSLQPDDFATYYCQQYNTYWTFGQGTKVEIKR
# Molecular target: wild type plasma kallikrein recombinant catalytic domain (Pichia pastoris) (human) (UniProt P03952)
# Test: enzyme inhibition assay: rate (F/s) of cleavage of a substrate peptide by PKal against [IgG] (nM), fitted to the Morrison equation (apparent Ki); panel 'X115-F02 vs WT'
binder,measurement,value
B1,Ki,0.09 nM
